Tests used:
human CD18 (human) = human CD18 (human) (UniProt P05107); test: cell-based or functional assay
rhesus CD18 (rhesus) = rhesus CD18 (rhesus) (UniProt H9Z8N5); test: cell-based or functional assay

human CD18 (human), sequence (P05107 23-769): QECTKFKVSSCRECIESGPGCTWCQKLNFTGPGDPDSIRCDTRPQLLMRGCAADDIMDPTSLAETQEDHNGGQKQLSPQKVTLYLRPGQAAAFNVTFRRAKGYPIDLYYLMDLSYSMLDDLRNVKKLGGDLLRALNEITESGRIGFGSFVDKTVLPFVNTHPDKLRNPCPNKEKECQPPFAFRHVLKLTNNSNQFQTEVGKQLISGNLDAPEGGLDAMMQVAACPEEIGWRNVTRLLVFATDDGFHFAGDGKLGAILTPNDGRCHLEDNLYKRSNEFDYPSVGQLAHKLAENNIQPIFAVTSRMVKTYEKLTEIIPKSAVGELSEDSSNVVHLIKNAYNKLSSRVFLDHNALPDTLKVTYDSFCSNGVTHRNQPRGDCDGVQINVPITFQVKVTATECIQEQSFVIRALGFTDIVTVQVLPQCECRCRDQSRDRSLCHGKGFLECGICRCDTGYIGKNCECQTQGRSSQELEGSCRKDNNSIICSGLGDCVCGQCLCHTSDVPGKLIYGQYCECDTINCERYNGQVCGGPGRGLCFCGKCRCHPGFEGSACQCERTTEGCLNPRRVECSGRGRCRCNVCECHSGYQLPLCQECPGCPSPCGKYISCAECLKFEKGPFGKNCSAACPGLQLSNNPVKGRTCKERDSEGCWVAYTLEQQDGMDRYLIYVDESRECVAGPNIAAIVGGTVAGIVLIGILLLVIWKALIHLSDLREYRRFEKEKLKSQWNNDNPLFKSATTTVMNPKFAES

## murine anti-human CD18 antibody MHM23
Human CD18 (human)
  IC50 Value (nM), Rh/HuCD11a:HuK cell adhesion: 1.4 nM
Rhesus CD18 (rhesus)
  IC50 Value (nM), RhLy:HuICAM cell adhesion: 1.2 nM
  IC50 Value (nM), RhLy:HuK cell adhesion: 1.6 nM
  IC50 Value (nM), rhesus mixed lymphocyte response: 30.4 nM

From patent US20100136005A1
